In IntAct's records for PubMed 16415179:

B1: Transcriptional repressor p66-alpha (Homo sapiens), Q86YP4 (parent)
chain: MTEEACRTRSQKRALERDPTEDDVESKKIKMERGLLASDLNTDGDMRVTPEPGAGPTQGLLRATEATAMAMGRGEGLVGDGPVDMRTSHSDMKSERRPPSPDVIVLSDNEQPSSPRVNGLTTVALKETSTEALMKSSPEERERMIKQLKEELRLEEAKLVLLKKLRQSQIQKEATAQKPTGSVGSTVTTPPPLVRGTQNIPAGKPSLQTSSARMPGSVIPPPLVRGGQQASSKLGPQASSQVVMPPLVRGAQQIHSIRQHSSTGPPPLLLAPRASVPSVQIQGQRIIQQGLIRVANVPNTSLLVNIPQPTPASLKGTTATSAQANSTPTSVASVVTSAESPASRQAAAKLALRKQLEKTLLEIPPPKPPAPEMNFLPSAANNEFIYLVGLEEVVQNLLETQGRMSAATVLSREPYMCAQCKTDFTCRWREEKSGAIMCENCMTTNQKKALKVEHTSRLKAAFVKALQQEQEIEQRLLQQGTAPAQAKAEPTAAPHPVLKQVIKPRRKLAFRSGEARDWSNGAVLQASSQLSRGSATTPRGVLHTFSPSPKLQNSASATALVSRTGRHSERTVSAGKGSATSNWKKTPLSTGGTLAFVSPSLAVHKSSSAVDRQREYLLDMIPPRSIPQSATWK

Variants of: B1
Conditions: with mbd2_human MBD2, Q9UBB5
Sequence of mbd2_human MBD2, Q9UBB5 (Q9UBB5 whole entry): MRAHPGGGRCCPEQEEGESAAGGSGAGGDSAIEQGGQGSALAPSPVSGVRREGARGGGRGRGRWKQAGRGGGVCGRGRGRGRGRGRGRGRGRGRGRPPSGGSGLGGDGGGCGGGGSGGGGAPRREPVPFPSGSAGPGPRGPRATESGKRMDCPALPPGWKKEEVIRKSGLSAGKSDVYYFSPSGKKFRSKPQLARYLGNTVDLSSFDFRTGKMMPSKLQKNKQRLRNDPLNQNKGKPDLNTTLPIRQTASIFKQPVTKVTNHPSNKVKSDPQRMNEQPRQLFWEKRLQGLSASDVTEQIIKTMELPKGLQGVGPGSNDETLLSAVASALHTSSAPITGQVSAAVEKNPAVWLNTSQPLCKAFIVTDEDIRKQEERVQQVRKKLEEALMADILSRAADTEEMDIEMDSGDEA

| effect of a mutation on the interaction | Variant |
| --- | --- |
| decreasing interaction | K149R |
